First the molecules themselves.
B1: D. melanogaster Rhino chromodomain (19–85) (domain or fragment)
chain: DHVEEYVVEKILGKRFVNGRPQVLVKWSGFPNENNTWEPLENVGNCMKLVSDFESEVFRLHRKAAAK

For data set [1], the target named is Rhino chromodomain (23–85) (D. melanogaster) (UniProt Q7JXA8). As to the kind of experiment: ITC.
The target of data set [2] is B1. The data set can be described thus: crystal structure.
The data set “crystal structure” concerns the molecule itself. As to the kind of experiment: crystal structure.

This is an account of results in paper PMC4117942 (Genes & Development, 2014).

In turn, “H3(1–15)K9me2 peptide (from UniProt P02299 2-16)” registered a Kd in data set [1] of 28.4 µM. That is a double-digit micromolar value.

“H3(1–15)K9me3 peptide (from UniProt P02299 2-16)”: the Kd in data set [1] was 21.8 µM.

With ARTKQTARKSTGGKA (trimethyl-lysine at 9 (K9me3)) [H3(1–15)K9me3 peptide], in data set [2], the binding result was “binds”.

With B1, in the data set “crystal structure”, the binding result is given as “binds”.
